Data published in PMC10909901.

Legend:
[1] = target: RRS1-R-YFP (Arabidopsis thaliana) (UniProt C4B7M5); assay: FRET or BRET
[2] = target: AtWRKY22-YFP (Arabidopsis thaliana) (UniProt O04609); assay: FRET or BRET
Sequence of UniProt O04609 (O04609 whole entry): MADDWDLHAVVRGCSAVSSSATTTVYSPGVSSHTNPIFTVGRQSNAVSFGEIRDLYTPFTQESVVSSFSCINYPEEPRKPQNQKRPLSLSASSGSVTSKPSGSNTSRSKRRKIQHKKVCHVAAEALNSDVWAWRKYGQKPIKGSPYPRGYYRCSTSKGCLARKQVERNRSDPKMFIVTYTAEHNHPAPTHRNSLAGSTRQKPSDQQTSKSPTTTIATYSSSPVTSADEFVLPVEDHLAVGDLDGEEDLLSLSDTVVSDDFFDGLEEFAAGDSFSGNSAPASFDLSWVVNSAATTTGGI

Sequence of UniProt C4B7M5 (C4B7M5 whole entry): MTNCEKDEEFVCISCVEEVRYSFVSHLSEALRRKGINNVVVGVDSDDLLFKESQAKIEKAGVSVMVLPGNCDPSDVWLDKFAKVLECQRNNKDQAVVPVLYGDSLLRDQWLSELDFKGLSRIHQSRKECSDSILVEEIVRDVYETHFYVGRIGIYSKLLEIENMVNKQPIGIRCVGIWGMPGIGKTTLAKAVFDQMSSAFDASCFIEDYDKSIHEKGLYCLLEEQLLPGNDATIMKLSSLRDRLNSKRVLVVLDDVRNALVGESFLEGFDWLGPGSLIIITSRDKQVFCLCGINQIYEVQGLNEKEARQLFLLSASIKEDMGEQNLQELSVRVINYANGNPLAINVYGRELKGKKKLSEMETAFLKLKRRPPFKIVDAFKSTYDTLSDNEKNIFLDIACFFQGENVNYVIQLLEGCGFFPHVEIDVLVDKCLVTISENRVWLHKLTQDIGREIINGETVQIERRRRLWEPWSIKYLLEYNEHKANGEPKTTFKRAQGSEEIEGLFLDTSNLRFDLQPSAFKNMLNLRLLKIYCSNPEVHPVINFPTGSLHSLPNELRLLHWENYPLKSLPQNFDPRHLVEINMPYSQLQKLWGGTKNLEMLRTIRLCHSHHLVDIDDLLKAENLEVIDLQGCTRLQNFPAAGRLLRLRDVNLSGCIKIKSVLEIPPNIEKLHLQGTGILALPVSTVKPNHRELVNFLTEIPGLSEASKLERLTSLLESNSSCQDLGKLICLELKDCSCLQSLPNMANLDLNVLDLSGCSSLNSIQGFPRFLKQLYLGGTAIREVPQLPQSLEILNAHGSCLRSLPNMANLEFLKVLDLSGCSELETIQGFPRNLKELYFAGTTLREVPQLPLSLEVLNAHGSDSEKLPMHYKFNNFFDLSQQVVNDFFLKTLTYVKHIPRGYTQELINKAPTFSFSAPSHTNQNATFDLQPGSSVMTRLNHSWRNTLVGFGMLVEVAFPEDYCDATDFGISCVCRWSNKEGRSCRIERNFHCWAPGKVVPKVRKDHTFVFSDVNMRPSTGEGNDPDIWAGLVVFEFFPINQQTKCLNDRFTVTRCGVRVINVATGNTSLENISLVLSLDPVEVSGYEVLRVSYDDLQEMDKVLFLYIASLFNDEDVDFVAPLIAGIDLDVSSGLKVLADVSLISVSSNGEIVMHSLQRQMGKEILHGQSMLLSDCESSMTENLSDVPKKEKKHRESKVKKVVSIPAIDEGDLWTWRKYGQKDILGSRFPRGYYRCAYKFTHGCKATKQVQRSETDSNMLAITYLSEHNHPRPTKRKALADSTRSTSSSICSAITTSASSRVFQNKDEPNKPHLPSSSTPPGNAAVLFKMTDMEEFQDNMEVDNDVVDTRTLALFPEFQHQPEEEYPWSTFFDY

Row | Substance | FRET efficiency E [1] [%] | mean CFP donor lifetime T in the presence of the acceptor [1] [ns] | Δt (decrease of donor lifetime) [1] [ps] | FRET efficiency E [2] [%] | mean CFP donor lifetime T in the presence of the acceptor [2] [ns] | Δt (decrease of donor lifetime) [2] [ps]
1 | XopJ6_(CN06)-CFP (natural protein) | 15 | 3.27 | 578 | 9.49 | 3.48 | 365
2 | XopJ6^C409A-CFP (natural protein) | 12.1 | 3.27 | 452 | 9.67 | 3.36 | –
